Test results: patent US20130330346A1 (Novartis, published 2013)
Residue numbers refer to the chain shown, from its start. Like-named read-outs stand apart in the source and are kept apart here. Blank lines part the entries; values can stand above or below the binder they belong to. Ends that are not written are not given here.

Assays:
[1] = molecular target: T1, Human CXCR2 (human, UniProt P25025 1-360); experiment: FACS hGro-α competition
T1 construct: Some cell lines carry an N-terminal 3xHA tag; also called hCXCR2; huCXCR2
T1 sequence: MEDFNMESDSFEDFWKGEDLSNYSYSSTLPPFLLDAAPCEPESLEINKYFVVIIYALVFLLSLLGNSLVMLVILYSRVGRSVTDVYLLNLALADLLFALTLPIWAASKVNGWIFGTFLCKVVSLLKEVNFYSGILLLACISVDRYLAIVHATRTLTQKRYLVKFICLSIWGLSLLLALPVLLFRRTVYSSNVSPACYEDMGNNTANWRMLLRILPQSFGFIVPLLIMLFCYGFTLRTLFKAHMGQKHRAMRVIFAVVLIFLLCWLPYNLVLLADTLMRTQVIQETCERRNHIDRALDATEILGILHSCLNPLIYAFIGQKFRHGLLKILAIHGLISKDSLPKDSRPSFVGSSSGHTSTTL

[2] = molecular target: T2, Cynomolgus CXCR2 (cynomolgus, UniProt Q28519 3-353 (rhesus entry)); experiment: FACS hGro-α competition
T2 construct: On transfected HEK293T or RBL-2H3 cells; native on cynomolgus neutrophils in the WBSC assay; also called cCXCR2; cynoCXCR2
T2 chain: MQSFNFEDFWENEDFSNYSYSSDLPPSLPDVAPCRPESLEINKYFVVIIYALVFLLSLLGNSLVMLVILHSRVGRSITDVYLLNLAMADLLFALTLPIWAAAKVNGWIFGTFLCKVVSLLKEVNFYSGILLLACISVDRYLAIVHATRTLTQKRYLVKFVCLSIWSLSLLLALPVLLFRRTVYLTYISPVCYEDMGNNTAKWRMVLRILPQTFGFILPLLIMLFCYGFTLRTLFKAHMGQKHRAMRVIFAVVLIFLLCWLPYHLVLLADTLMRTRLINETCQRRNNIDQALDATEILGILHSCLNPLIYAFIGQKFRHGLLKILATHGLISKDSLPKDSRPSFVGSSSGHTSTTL

[3] = molecular target: T1, Human CXCR2; experiment: FACS, periplasmic extract vs FMAT Blue Gro-α
Procedure: Periplasmic extracts (as described above) were analyzed on FACS for competition with Gro-α in binding to human CXCR2. 2×10⁵ cells were incubated with a ½ dilution of periplasmic extracts in FACS buffer (PBS+10% fetal bovine serum (Sigma, F7524)) for 30 minutes at 4° C. Then, an equal volume of 6 nM of FMAT Blue-labeled human Gro-α in FACS buffer was added and incubation was continued for another 30 minutes at 4° C. in the dark. Cells were then washed three times in FACS buffer and finally resuspended in FACS buffer. Dead cells were stained with propidium iodide (Sigma, P4170). Samples were then analyzed on a FACSarray (BD Biosciences).

[4] = molecular target: T1, Human CXCR2; experiment: cell-based or functional assay
[5] = molecular target: T2, Cynomolgus CXCR2; experiment: cell-based or functional assay
[6] = molecular target: T1, Human CXCR2; experiment: FACS competition vs 3 nM FMAT-Blue Gro-α
Procedure: (§1) Purified monovalent anti-CXCR2Nanobodies were titrated against 3 nM FMAT-Blue-labeled Gro-α in the FACS ligand competition assay on human and cynomolgus CXCR2 (Table 10). On human CXCR2, blocking potencies range between double digit nM and sub-nM whereas on cynomolgus CXCR2, they range between single and double digit nM.

[7] = molecular target: T2, Cynomolgus CXCR2; experiment: FACS competition vs 3 nM FMAT-Blue Gro-α
Procedure: as §1

[8] = molecular target: T1, Human CXCR2; experiment: cell-based or functional assay; remark: listed apart in the source
[9] = molecular target: T2, Cynomolgus CXCR2; experiment: cell-based or functional assay
[10] = molecular target: T1, Human CXCR2; experiment: cell-based or functional assay; remark: listed apart in the source
[11] = molecular target: T2, Cynomolgus CXCR2; experiment: cell-based or functional assay
[12] = molecular target: T3, Human 1to19 peptide (human); experiment: ELISA, periplasmic extract on biotinylated peptide
T3 construct: First 19 N-terminal amino acids of human CXCR2, captured on neutravidin; also called human CXCR2 1 to19 peptide; 1-19 Nter peptide
T3 peptide: MEDFNMESDSFEDFWKGED-biotin
Procedure: In another setup, periplasmic extracts were analyzed for binding to human 1 to 19 peptide by ELISA. MaxiSorb plates (Nunc, 430341) were coated for two hours with neutravidin followed by one hour blocking (PBS, 1% casein). Then 100 nM biotinylated human 1 to 19 peptide was added to these plates for one hour (PBS, 0.1% casein, 0.05% tween20) followed by one hour incubation with 10-fold dilutions of periplasmic extracts. Unbound periplasmic extracts were washed away (PBS supplemented with 0.05% tween20) and bound Nanobodies were detected using mouse anti-myc (Roche, 11667149001) followed by rabbit anti-mouse-HRP conjugate (Dakocytomation, P0260). Table 8 summarizes the ratios of the binding signals of anti-CXCR2Nanobodies over an irrelevant control Nanobody.

[13] = molecular target: T1, Human CXCR2; experiment: cell-based or functional assay; remark: listed apart in the source
[14] = molecular target: T2, Cynomolgus CXCR2; experiment: cell-based or functional assay
[15] = molecular target: T2, Cynomolgus CXCR2; experiment: FACS hGro-α competition

IC50 [1]: 12 nM
IC50 [2]: 63 nM
FACS Gro-α competition (% inhibition) [3]: 85.9%
Human Chemotaxis IC50 (GROα) [4]: 48.5 nM
Human WBSC IC50 (rhGROα) [4]: 11.6 nM
Cynomologus WBSC IC50 (rhGROα) [5]: > 100 nM
% inhibition of max [6]: 93.9%
IC50 [6]: 17.2 nM
% inhibition of max [7]: 53%
IC50 [7]: 64.1 nM
FLIPR hGro-α IC50 [8]: 94 nM
FLIPR hGro-α IC50 [9]: 800 nM
FLIPR % inhibition max [10]: 100%
FLIPR IC50 (GRO-α induced calcium release) [10]: 39.9 nM
[35S]GTPγS % inhibition max (GRO-α) [10]: 100%
[35S]GTPγS IC50 (GRO-α) [10]: 50.3 nM
FLIPR % inhibition max [11]: 100%
FLIPR IC50 (GRO-α induced calcium release) [11]: 640 nM
ratio of binding signal relative to blank control [12]: 0.8 ratio
B1: 97A9 (VHH)
VHH: EVQLVESGGGLVQPGGSLRLSCVASGSIVRINTMGWYRQTPGKQRELVADITSGGNINYIDAVKGRFTISRDNTKNTVYLQMNSLKPEDTAVYYCNAEIVVLVGVWTQRARTGNYWGQGTQVTVSS
notes: Tested as periplasmic extract (pAX50) and as purified His6-tagged protein (pAX100); also called 097A09; not shown: C-terminal c-myc tag and His6 tag coded by the vector

FLIPR hGro-α IC50 [13]: 150 nM
FLIPR hGro-α IC50 [14]: 1100 nM
IC50 [15]: 33 nM
Human WBSC IC50 (rhGROα) [4]: 19.7 nM
Cynomologus WBSC IC50 (rhGROα) [5]: > 100 nM
% inhibition of max [6]: 35%
IC50 [6]: 0.857 nM
% inhibition of max [7]: 63%
IC50 [7]: 39.5 nM
FLIPR % inhibition max [10]: 100%
FLIPR IC50 (GRO-α induced calcium release) [10]: 153 nM
[35S]GTPγS % inhibition max (GRO-α) [10]: 71.8%
[35S]GTPγS IC50 (GRO-α) [10]: 15.4 nM
FLIPR % inhibition max [11]: 100%
FLIPR IC50 (GRO-α induced calcium release) [11]: 4080 nM
ratio of binding signal relative to blank control [12]: 75.5 ratio
B2: 54B12 (VHH)
VHH: EVQLVESGGGLVQAGGSLTLSCAVSGSTFRINTMGWYRRAPGKQRELVAARDRGGYINYVDSVKGRFTVSRDNAKPTMYLQMNSLKPEDTAVYYCHAGTQDRTGRNFDRWGQGTQVTVSS
notes: Tested as periplasmic extract (pAX50) and as purified His6-tagged protein (pAX100); also called 054B12; not shown: C-terminal c-myc tag and His6 tag coded by the vector

FLIPR hGro-α IC50 [13]: 59 nM
FLIPR hGro-α IC50 [14]: 3500 nM
IC50 [15]: 13 nM
B3: CXCR20104 (VHH)
VHH: B2 VHH with V5L, A14P, T19R, R39Q, V69I, A74S, K86R, Q115L
notes: also called CXCR2104
